{"source": "paper PMC8826447", "about": "(2022)", "binders": {"B1": {"name": "TLK2 (protein)", "chain": "not shown"}}, "target": "ASF1 (Homo sapiens, UniProt Q9Y294)", "sequence (Q9Y294 whole entry)": "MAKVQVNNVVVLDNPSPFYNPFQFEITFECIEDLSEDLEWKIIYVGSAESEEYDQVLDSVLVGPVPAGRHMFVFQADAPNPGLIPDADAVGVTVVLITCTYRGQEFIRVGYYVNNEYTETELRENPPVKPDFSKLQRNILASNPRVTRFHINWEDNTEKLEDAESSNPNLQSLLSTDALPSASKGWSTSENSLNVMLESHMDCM", "data": [{"binder": "B1", "values": [{"measurement": "Kd", "value": "~2000", "unit": "nM"}]}]}
